In patent US7981423B2, “Rage fusion proteins” (Transtech Pharma, Inc., priority 2004, dated 2011):

Key:
male C57BL/6 mice = assay: Animal model of stroke (carotid/cerebral artery occlusion and reperfusion); format: in vivo, mouse; conditions: treated just prior to reperfusion
Description: For example, the RAGE fusion proteins of the present invention may also be used to treat stroke. […] In this model, the […] of a mouse is ligated and then reperfased to form an infart. To assess the efficacy of RAGE fusion proteins to treat or prevent stroke, mice were treated with sRAGE or TTP-4000 or control immunoglobulin just prior to reperfusion.
TTP-4000 was also compared to sRAGE in a disease relevant animal model of stroke. In this model, the […] of a mouse was ligated for 1 hour followed by 23 hours of reperfusion at which point the mice were sacrificed and the area of the infarct in the brain was assessed. […] After the nylon suture had been in place for 1 hour, the animal was re-anesthetized, rectal temperature was recorded and the suture was removed and the incision closed.
Infarct volume was determined by anesthetizing the animals with an intraperitoneal injection of sodium pentobarbital (50 mg/kg) and then removing the brains. […] The infarct area in each section was determined with a computer-assisted image analysis system, consisting of a Power Macintosh computer equipped with a Quick Capture frame grabber card, Hitachi CCD camera mounted on a camera stand. […] The images were captured and the total area of infarct was determined over the sections. […] Summing the infarct volumes of the sections calculated the total infarct volume. […]

Fc receptor = Fc receptor activation, TNF-α secretion from THP-1 cells; format: cell-based; conditions: FIG. 12
Description: Fc stimulation results in TNF-α secretion.

B1: TTP-4000: four domain RAGE fusion protein (SEQ ID NO: 32): human RAGE amino acids 1-251 linked to CH2 and CH3 domains of human IgG (protein)
chain: MAAGTAVGAWALVLSLWGAVVGAQNITARIGEPLVLKCKGAPKKPPQRLEWKLNTGRTEAWKVLSPQGGGPWDSVARVLPNGSLFLPAVGIQDEGIFRCQAMNRNGKETKSNYRVRVYQIPGKPEIVDSASELTAGVPNKVGTCVSEGSYPAGTLSWHLDGKPLVPNEKGVSVKEQTRRHPETGLFTLQSELMVTPARGGDPRPTFSCSFSPGLPRHRALRTAPIQPRVWEPVPLEEVQLVVEPEGGAVAPPSVFLFPPKPKDTLMISRTPEVTCVVVDVSHEDPEVKFNWYVDGVEVHNAKTKPREEQYNSTYRVVSVLTVLHQDWLNGKEYKCKVSNKALPAPIEKTISKAKGQPREPQVYTLPPSRDELTKNQVSLTCLVKGFYPSDIAVEWESNGQPENNYKTTPPVLDSDGSFFLYSKLTVDKSRWQQGNVFSCSVMHEALHNHYTQKSLSLSPGK
reduction in infarct volume compared to sRAGE (in words) (male C57BL/6 mice): significantly greater reduction in infarct volume
stimulation of TNF-α release from cells (in words) (Fc receptor; conditions where human IgG stimulation of TNF-α release is detected): does not stimulate TNF-α release
TNF generated (Fc receptor; well precoated with 10 μg/well heat aggregated protein, THP-1 cells, 24 hours): less than 2 ng/well
